Fewer inactive variants are shown than the library holds.
B1: TPR 5TU (parent)
chain: GGAUCUUCUCGAUCUAACAAAAAAGACAAAUCUGCCACAAAGCUUGAGAGCAUCUUCGGAUGCAGAGGCGGCAGCCUUCGGUGGCGCGAUAGCGCCAACGUUCUCAACUAUGACACGCAAAACGCGUGCUCCGUUGAAUGGAGUUUAUCAUG

Variants of: B1
Experiment: polymerase ribozyme fitness, log enrichment relative to wild type (log ratio); higher = more active; in vitro selection for triplet polymerase activity
Summary of the method: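 Fitness is a logarithmic measure of how a genotype enriched relative to the wild type, with replicate averages weighted by inverse variance. The logarithm uses base 2, and enrichment came from Illumina sequencing of input and output libraries. Those libraries were PCR-built, transcribed mutants of each subunit of a heterodimeric triplet polymerase ribozyme, passed through one triplicate in vitro selection round that included frozen incubation at −7 °C, gel excision of extended constructs and streptavidin-bead capture. Genotypes were kept only if they had ≥10 input reads and ≥1 read per output.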

| Variant | polymerase ribozyme fitness (log ratio) |
| --- | --- |
| A12U C105G C118A | -2.62 |
| U53A A91G | -3.09 |
| U56G G58A A73G C108U A150G | ≤ -4.2 |
| A19U A22G C27G A30U G88C C95U | ≤ -4.2 |
| G83U A91U A120U A138U | ≤ -4.2 |
| C43U U53A | ≤ -4.2 |
| A22G G80A G86A C93A | -4.2 |
| C27G U31C G62C C63G C85U A142U | ≤ -4.2 |
| A52G C93U U101C C105U | -2.43 |
| A26U A41C A49U U53A C95U U130A C132A G143A U148C | ≤ -4.2 |
| G84A A120U C123A G126U | 0.597 |
| A22U U53A G92A G141A | -3.56 |
| U31A A47G A73U G83A | -3.5 |
| U55G C85U A91G G94A | -3.29 |
| A26G A41G A60U U90G C99A G143U U151C | ≤ -4.2 |
| A17U G86A | -0.694 |
| U4A C36G C131A G136A | ≤ -4.2 |
| A16C U31A | -0.733 |
| A52U C76U A150U | -1.19 |
| C35G U45C G67U G83C | ≤ -4.2 |
| C10G C54A G71A | ≤ -4.2 |
| C14G U15C C76A C85G | -3.78 |
| G59A A150U | 0.933 |
| A52G G83A C118U A150G | -2.35 |

| Variant | polymerase ribozyme fitness (log ratio) |
| --- | --- |
| U56A U127G | -2.83 |
| G58U G81C C93G | -3.21 |
| U82G A115U | -1.61 |
| G50A G71A C95U U139A | ≤ -4.2 |
| G67C C85U G126U G133C G143A | ≤ -4.2 |
| C35U A41U C54U C76G C85A A98G | ≤ -4.2 |
| C10G G92A U111G A150C | ≤ -4.2 |
| U61A U146C | -0.489 |
| A41C G50C G84A A119G | -3.83 |
| U9A C27A A40U | ≤ -4.2 |
| U45A A97U | -2.84 |
| U6A C18U A49C C79A A91G U101C C103A | ≤ -4.2 |
| U55A C57A C93U G126U | -0.627 |
| C35A C72U C118A G126C | ≤ -4.2 |
| C8U | -2.39 |
| C5G A37U G83C C129A U145A | ≤ -4.2 |
| A37U C72A G126C | ≤ -4.2 |
| A17C C54A C87A C114U | ≤ -4.2 |
| A23U G42U G58C G65U C75G G141U | ≤ -4.2 |
| G62C A97G | -0.203 |
| U13G C14G A30C G80A A137U | ≤ -4.2 |
| U6C C36A G67C C85U G124C C132U | ≤ -4.2 |
| U53G A91G | -3.94 |
| U6A A12G A16U C43U G83A | ≤ -4.2 |

| Variant | polymerase ribozyme fitness (log ratio) |
| --- | --- |
| G94A C132G | -3.64 |
| G100C A137G G141C U148A | ≤ -4.2 |
| C5G C96G G141U | -0.469 |
| A29G G86U U102G U134G G140U C149A | ≤ -4.2 |
| A17U C85U | -1.68 |
| U53A G83C C105G | ≤ -4.2 |
| U44A U45A A47C G86A U130G | ≤ -4.2 |
| C14G G50A C54U C93A U139A | ≤ -4.2 |
| A3C A29C A37U C57U C87U A142G U148C | ≤ -4.2 |
| C35A A98G | -3.17 |
| G83C C95U | -1.81 |
| A17C U33G G71A C85U G88U U111C A142G U146C | ≤ -4.2 |
| U13G U15A C36A A40C U56A G58A A107U G124U C131A | ≤ -4.2 |
| A97G G112A A121C G141U | ≤ -4.2 |
| A12C C57A | -0.21 |
| G84A U101C U146A | -0.212 |
| C38G U53A G80A | -2.37 |
| C54A U77G C85U C93G G117C G136A | ≤ -4.2 |
| C18G A20C U56G G94A | -1.51 |
| G58A G84C | -1.94 |
| A19C G80A C96U C99U G124A | 0.098 |
| U53G C95U U139G | -1.58 |
| A52U A89C | -3.05 |
| G70A G94U C96G A142C U148A | ≤ -4.2 |

| Variant | polymerase ribozyme fitness (log ratio) |
| --- | --- |
| U13A G42C G48C C85A C99G A106G G133U G141C | ≤ -4.2 |
| C93G G140A | ≤ -4.2 |
| U33G C43A C57A A60C G74A G83A C85G A150U | ≤ -4.2 |
| A22G A23C G83A | ≤ -4.2 |
| C35U G65A G80U C95G G141C | -3.95 |
| U145G | -0.131 |
| A12C U145C | 0.192 |
| A17U C54U | -0.241 |
| C8A C14G A21G G25A U45C C75A G81U C85G C87G | ≤ -4.2 |
| U9A C10U U53A A66U C87A A119U G126A G141A | -4.03 |
| G50U G83A U146C A147C | -2.91 |
| C57A G70A U134C | -3.65 |
| C96G U148G | -4.12 |
| U9A A24U U55A G68U U82C G94A A110U G136A | ≤ -4.2 |
| U13C U44A C87A G126U | ≤ -4.2 |
| U53A A91C U101C | ≤ -4.2 |
| C54U C85U C116A | 0.743 |
| G68A C79U A91G | -4.14 |
| C57A C85U G143A | -0.323 |
| G46A G70U C85G U130A | ≤ -4.2 |
| A17C U53G G62U G117U | -2.27 |
| A37C C95G U134G | -3.26 |
| C5U A40G C85G | -3.18 |
| A37G A49U C51U C85U G92A C96A A97G U144A U146G | ≤ -4.2 |

| Variant | polymerase ribozyme fitness (log ratio) |
| --- | --- |
| A12G C95U C105G A106U | -4.1 |
| U31G A49C A52G A97C A120U U135C U148G | ≤ -4.2 |
| A47G A91G | -2.73 |
| A24U A39G C51U C57A C85U C129G | ≤ -4.2 |
| C5G C108U | -3.65 |
| A40G G84C U109G A119U U139A G140U G152U | ≤ -4.2 |
| A91U A121U U144A | ≤ -4.2 |
| C32G A64U C105U G152U | ≤ -4.2 |
| A66G G88U A119G U139G | ≤ -4.2 |
| A22U U61G G86A U104G | ≤ -4.2 |
| A22G C32G U33G G94A A110C C116G | -4.15 |
| A40C A138G U144G | -3.92 |
| U134G U144G | -1.51 |
| A21U C57A | 0.469 |
| U44G G92C | ≤ -4.2 |
| C54U C99A U146G A150U | -3.6 |
| G11U A12U A30U U55A C85U C95U A142U | ≤ -4.2 |
| U6G U31G A73G G86A A137U | ≤ -4.2 |
| G84A U102G C125G | -3.78 |
| C8G G70C G80A A91U U104C A120U | ≤ -4.2 |
| G42C G133C G143C | ≤ -4.2 |
| A52G G92A A113U | -3.81 |
| A91U G141C | -4.05 |
| U15A C76U C99G C105G | ≤ -4.2 |

| Variant | polymerase ribozyme fitness (log ratio) |
| --- | --- |
| C14U U15A A20G C38U C57U U90C U102G A119G A122C | ≤ -4.2 |
| A47U G58U G84A C93G U148A | ≤ -4.2 |
| A21G G50C A66C U82C G86C C114G A120C A150G | ≤ -4.2 |
| A19C C57A | 0.797 |
| A28U A60C A91G A98U | ≤ -4.2 |
| G11U A16G C36A A49C C95G C118U G133U | ≤ -4.2 |
| G84A C116A | 0.83 |
| A26G C54G C57U C96U C132U | ≤ -4.2 |
| C8G A29G G50U C85U C125A | ≤ -4.2 |
| G46A C54A C57G G74U C87A A121G | ≤ -4.2 |
| A30U G58C C95U U135C U144A | ≤ -4.2 |
| A41C A66G G70A A91U C93U C96G | ≤ -4.2 |
| A16U G48U G86C C87A A97U C123U U148G | ≤ -4.2 |
| G92U A138U | -4.2 |
| A12G A20G A26U A41C C54U U77C U102C U146G | ≤ -4.2 |
| A12U U13G A52U C54A | ≤ -4.2 |
| A30G C32G C85G U90C C93G U111G A113U | ≤ -4.2 |
| A12U A19C U82C C129G | -3.41 |
| C14G A30G A52C C72A C95G C103G | ≤ -4.2 |
| C32G U56A | -4.1 |
| A47G U102A | -0.825 |
| U82A A106U | -1.16 |
| U55A G84A A121U | -1.24 |
| U6C U78G U111G U134C | -4.14 |

| Variant | polymerase ribozyme fitness (log ratio) |
| --- | --- |
| A22C G65C G80U A91G | ≤ -4.2 |
| G50A G141A | -0.962 |
| C93U A115G | -3 |
| A12G C14U C79G C132A A142U | ≤ -4.2 |
| U61A A150G | -1.15 |
| U6G A142U | -0.0461 |
| U6C A21U C85U | -0.501 |
| U53A U102G G133U U144G | ≤ -4.2 |
| G59A U61A C69A A142C | -3.27 |
| U6C C76G G124U G128U | ≤ -4.2 |
| A52C C87A | ≤ -4.2 |
| C8G C54U | -3.66 |
| G58U G83U C118U A137U | ≤ -4.2 |
| A17C U53A A73U C76A C85G C108A U146A | ≤ -4.2 |
| C5U C14U A23C U90C C96A C103G G124U | ≤ -4.2 |
| C51U C57A G84A U109G C123A | -1.74 |
| A22U C75G C76U G94C A110U A147U | ≤ -4.2 |
| G126A U148C | -2.93 |
| A91U U111G U127C | ≤ -4.2 |
| G34C G42A G86A U148C | ≤ -4.2 |
| C54U C87A A89G C96U A121U A142C | ≤ -4.2 |
| A22U U55G C57U | 0.196 |
| A3U A41C C95U C99G C118A G136A U144G | -3.81 |

Source: the RNAGym collection of RNA variant scans (doi:10.1073/pnas.2313332121)
